In PMC9033776, “Chromatin profiling in human neurons reveals aberrant roles for histone acetylation and BET family proteins in schizophrenia” (Nature Communications, 2022):
Where no end group is shown, it is not given here.

Target: T1, Bromo1-linker(GGS)5-Bromo2 of BRD4 (UniProt O60885 54-168; O60885 351-457)
T1 construct: BRD4 bromo1; (GGS)5 linker that replaces the stretch between the two bromodomains; BRD4 bromo2; the limits of the two domains in the fusion are not restated; also called Bromo1-linker-Bromo2 of BRD4; source: E. coli, purified using the same procedure as the single bromodomains
Assay: ITC; 3 mM H2A.Z peptides titrated into 0.3 mM bromodomains; 25 °C; 20 mM Hepes-Na pH 7.5, 100 mM NaCl; One Set of Binding Sites model
Conditions: both partners purified

B1: H2A.ZK4ac7ac11ac peptides cross-linked by a C-terminal cysteine (peptide)
chain: AGGK(Ac)AGK(Ac)DSGK(Ac)AKTKC
modifications: also: cross-linked via C-terminal cysteine
fold stronger binding than Bromo1 of BRD4: 6.49 fold | fold stronger binding than Bromo2 of BRD4: 1.7 fold
